In paper PMC6287813:

Biological target: Rabbit skeletal actin, filamentous (pre-formed actin filament) (rabbit) (UniProt P68135)
Test: single-filament TIRF microscopy with microfluidics (kymographs); actin filaments tethered at one point through biotinylated spectrin-actin seeds on streptavidin/PLL-PEG-biotin coverslip, stained with 0.15 uM Alexa Fluor 488-phalloidin; AF647-Tpm1.1 flowed in at various concentrations (62.5, 250, 500 nM shown), then washed with buffer only for dissociation; buffer F (5 mM Tris pH 7.8, 100 mM KCl, 1 mM MgCl2, 0.2 mM ATP, 0.2 mM EGTA, 0.1 mM CaCl2, 10 mM DTT, 1 mg/mL BSA)

elongation rate of the Tpm1.1 strand on actin per feed concentration, towards the barbed end (nm s^-1 nM^-1): 0.88
elongation rate of the Tpm1.1 strand on actin per feed concentration, towards the pointed end (nm s^-1 nM^-1): 1.1
nucleation time tnuc (Kaplan-Meier estimate, filament of Fig 3C, 62.5 nM Tpm1.1): 1370 s
weighted average elongation rate on one filament, towards the barbed end: 136 nm/s
weighted average elongation rate on one filament, towards the pointed end: 104 nm/s
Substance: Murine tropomyosin isoform Tpm1.1, labelled with Alexa Fluor 647 at Cys-190 (natural protein)
